From article PMC3176292, “Mutations in Protein-Binding Hot-Spots on the Hub Protein Smad3 Differentially Affect Its Protein Interactions and Smad3-Regulated Gene Expression” (PLoS ONE, 2011) come the findings set out here.

What all share (experiment): co-IP; LUMIER: Renilla luciferase-Smad3 and Flag-tagged partner co-expressed with constitutively active Alk5 in HEK-293; Flag protein captured from cleared lysate (TNE: 10 mM Tris-HCl pH 7.8, 150 mM NaCl, 1 mM EDTA, 1% Igepal CA-630) on anti-Flag 96-well plates, 2 h at 4 °C; co-precipitated Renilla luciferase activity, TrxGA background subtracted, percent of wild-type Smad3
Holding throughout (conditions): partners not purified

Experiment [1] addresses T1, Flag-SkiW274E, full length (UniProt P12755 1-728, W274E).
T1 construct: plasmid pCMV5b-Flag-SkiW274E (from K. Luo); also called SkiW274E FL; SKI274E; source: HEK-293, transfected, in lysate
T1 sequence (looked up): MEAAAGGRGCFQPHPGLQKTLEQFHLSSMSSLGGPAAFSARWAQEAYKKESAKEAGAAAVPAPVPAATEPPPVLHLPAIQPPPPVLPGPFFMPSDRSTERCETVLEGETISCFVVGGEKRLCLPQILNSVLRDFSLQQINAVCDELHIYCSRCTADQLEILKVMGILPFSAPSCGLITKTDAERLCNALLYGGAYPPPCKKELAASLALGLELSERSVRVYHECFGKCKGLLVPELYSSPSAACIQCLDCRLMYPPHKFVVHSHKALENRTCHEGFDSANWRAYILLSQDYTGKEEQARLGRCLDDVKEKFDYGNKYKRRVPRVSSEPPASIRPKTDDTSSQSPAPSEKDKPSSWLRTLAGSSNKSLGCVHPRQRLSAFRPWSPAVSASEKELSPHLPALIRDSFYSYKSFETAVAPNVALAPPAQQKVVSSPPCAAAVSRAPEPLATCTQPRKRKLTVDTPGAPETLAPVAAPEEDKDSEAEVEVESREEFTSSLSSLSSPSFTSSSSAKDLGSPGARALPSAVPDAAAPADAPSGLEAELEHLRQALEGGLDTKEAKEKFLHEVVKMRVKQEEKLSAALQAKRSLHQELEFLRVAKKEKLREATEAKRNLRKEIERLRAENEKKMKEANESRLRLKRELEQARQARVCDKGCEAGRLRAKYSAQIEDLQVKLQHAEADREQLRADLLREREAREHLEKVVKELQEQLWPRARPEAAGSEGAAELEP

For the next experiment, the target named is T2, Flag-Smad3, full length (UniProt P84022 1-425).
T2 construct: Smad3; plasmid pCMV5-Flag-Smad3 (from J. Massagué); bait for Smad3-Smad3 association; also called Smad3 FL; source: HEK-293, transfected together with constitutively active Alk5, in lysate

The target of the next experiment is T3, Flag-Smad4, full length (UniProt Q13485 1-552).
T3 construct: Smad4; plasmid pCMV5-Flag-Smad4 (from J. Massagué); also called Smad4 FL; source: HEK-293, transfected, in lysate
T3 sequence (looked up): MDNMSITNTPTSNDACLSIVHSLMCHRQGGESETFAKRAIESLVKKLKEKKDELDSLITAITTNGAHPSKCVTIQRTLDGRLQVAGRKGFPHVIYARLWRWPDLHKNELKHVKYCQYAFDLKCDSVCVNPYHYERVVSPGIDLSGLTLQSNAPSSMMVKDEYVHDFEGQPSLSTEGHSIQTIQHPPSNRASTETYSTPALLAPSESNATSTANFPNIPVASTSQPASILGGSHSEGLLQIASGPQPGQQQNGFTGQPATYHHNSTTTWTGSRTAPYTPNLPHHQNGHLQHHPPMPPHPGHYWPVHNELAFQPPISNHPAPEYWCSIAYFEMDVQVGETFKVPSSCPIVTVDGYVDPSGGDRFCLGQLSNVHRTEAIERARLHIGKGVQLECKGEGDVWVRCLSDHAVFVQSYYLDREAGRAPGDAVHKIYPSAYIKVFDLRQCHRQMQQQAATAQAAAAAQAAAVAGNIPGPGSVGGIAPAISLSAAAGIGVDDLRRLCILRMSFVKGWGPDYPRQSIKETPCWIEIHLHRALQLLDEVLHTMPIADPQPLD

Experiment [2] addresses T4, Smurf2 Smad-binding domain (amino acids 252–330) on the Flag-thioredoxin scaffold (UniProt Q9HAU4 252-330).
T4 construct: Smurf2, amino acids 252–330; also called Smurf2 aa252–330; TrxSmurf2; source: HEK-293, transfected, in lysate

Experiment [3] has as its target T5, Ski Smad-binding domain (amino acids 2–56) on the 3xFlag-thioredoxin scaffold (UniProt P12755 2-56).
T5 construct: Ski, amino acids 2–56; cloned into the unique RsrII site of pCI-3xFLAG-Trx; also called Ski aa2–56; TrxSki; source: HEK-293, transfected, in lysate
T5 sequence (looked up): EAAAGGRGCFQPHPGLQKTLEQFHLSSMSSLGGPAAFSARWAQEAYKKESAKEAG

T4 sequence (Q9HAU4 252-330): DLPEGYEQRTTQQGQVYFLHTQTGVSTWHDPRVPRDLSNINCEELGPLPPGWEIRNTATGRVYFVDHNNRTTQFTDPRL

B1: Renilla luciferase-Smad3 Y298A (natural protein, UniProt P84022 1-425, looked up)
chain: MSSILPFTPPIVKRLLGWKKGEQNGQEEKWCEKAVKSLVKKLKKTGQLDELEKAITTQNVNTKCITIPRSLDGRLQVSHRKGLPHVIYCRLWRWPDLHSHHELRAMELCEFAFNMKKDEVCVNPYHYQRVETPVLPPVLVPRHTEIPAEFPPLDDYSHSIPENTNFPAGIEPQSNIPETPPPGYLSEDGETSDHQMNHSMDAGSPNLSPNPMSPAHNNLDLQPVTYCEPAFWCSISYYELNQRVGETFHASQPSMTVDGFTDPSNSERFCLGLLSNVNRNAAVELTRRHIGRGVRLYAIGGEVFAECLSDSAIFVQSPNCNQRYGWHPATVCKIPPGCNLKIFNNQEFAALLAQSVNQGFEAVYQLTRMCTIRMSFVKGWGAEYRRQTVTSTPCWIELHLNGPLQWLDKVLTQMGSPSIRCSSVS
notes: Smad3; source: HEK-293, transfected together with constitutively active Alk5, in lysate
For B1, the “percent binding relative to wild-type Smad3” value in experiment [1] came out at 121%; with Flag-Smad3, full length, 113%; with Flag-Smad4, full length, 120%; in experiment [2] it was 144%; in experiment [3], 271%.
